Measurements published in patent publication US20220033516A1.
Positions count from the first letter of the chain named.

B1: MHR0009/CD3 (bispecific antibody, human IgG1, kappa, N297A)
heavy 1: QSLEESGGRLVTPGTPLTLTCKASGFSLSSYAMIWVRQAPGKGLESIGMVYIHSGGTYYASWAKGRFTISKTSTTVDLKITSPTTEDTATYFCARYNGGGSGTDLWGPGTLVTVSSASTKGPSVFPLAPSSRSTSESTAALGCLVKDYFPEPVTVSWNSGALTSGVHTFPAVLQSSGLYSLSSVVTVPSSSLGTKTYTCNVDHKPSNTKVDKRVEPKSCDKTHTCPPCPAPELRRGPKVFLFPPKPKDTLMISRTPEVTCVVVDVSQEDPEVQFNWYVDGVEVHNAKTKPREEQFASTYRVVSVLTVLHQDWLNGKEYKCKVSNKGLPSSIEKTISKAKGQPREPQVYTLPPSREEMTKNQVSLTCLVKGFYPSDIAVEWESNGQPENNYKTTPPYLDSDGSFFLYSKLTVDKSRWQEGNVFSCSVMHEALHNHYTQESLSLSP
light 1: DIVMTQTPSSVSEPVGGTVTIKCQASQSIYSYLSWYQQKPGQRPKLLIYYASTLASGVPSRFKGSGSGTQFTLTISDLECADAATYYCQNNYGSDSNIYGIAFGGGTKVEIKRTVAAPSVFIFPPSDEQLKSGTASVVCLLNNFYPREAKVQWKVDNALQSGNSQESVTEQDSKDCTYSLSSTLTLSKADYEKHKVYACEVTHQGLSSPVTKSFNRGEC
heavy 2: QVQLVESGGGVVQPGGSLRLSCAASGFTFSNAWMHWVRQAPGKGLEWVAQIKDKSQNYATYVAESVKGRFTISRADSKNSIYLQMNSLKTEDTAVYYCRYVHYAAGYGVDIWGQGTTVTVSSASTKGPSVFPLAPSSRSTSESTAALGCLVKDYFPEPVTVSWNSGALTSGVHTFPAVLQSSGLYSLSSVVTVPSSSLGTKTYTCNVDHKPSNTKVDKRVEPKSCDKTHTCPPCPAPELRRGPKVFLFPPKPKDTLMISRTPEVTCVVVDVSQEDPEVQFNWYVDGVEVHNAKTKPREEQFASTYRVVSVLTVLHQDWLNGKEYKCKVSNKGLPSSIEKTISKAKGQPREPQVYTLPPSRKEMTKNQVSLTCLVKGFYPSDIAVEWESNGQPENNYKTTPPYLDSDGSFFLYSKLTVDKSRWQEGNVFSCSVMHEALHNHYTQKSLSLSP
light 2: DIVMTQSPLSLPVTPGEPASISCRSSQPLVHSNRNTYLHWYQQKPGQAPRLLIYKVSNRFSGVPDRFSGSGSGTDFTLKISRVEAEDVGVYYCGQGTQVPYTFGQGTKLEIKRTVAAPSVFIFPPSDEQLKSGTASVVCLLNNFYPREAKVQWKVDNALQSGNSQESVTEQDSKDSTYSLSSTLTLSKADYEKHKVYACEVTHQGLSSPVTKSFNRGEC
B2: MHR0010/CD3 (bispecific antibody, human IgG1, kappa, N297A)
heavy 1: QSVEESGGRLVTPGTPLTLTCTVSGFSLSRYAMSWVRQAPGKGLEWIGIIVSSSGSTYYATWATGRFTISKTSTTVDLKITSPTTEDTATYFCARIRGYDNIGYGYPWFYYFNLWGPGTLVTVSSASTKGPSVFPLAPSSRSTSESTAALGCLVKDYFPEPVTVSWNSGALTSGVHTFPAVLQSSGLYSLSSVVTVPSSSLGTKTYTCNVDHKPSNTKVDKRVEPKSCDKTHTCPPCPAPELRRGPKVFLFPPKPKDTLMISRTPEVTCVVVDVSQEDPEVQFNWYVDGVEVHNAKTKPREEQFASTYRVVSVLTVLHQDWLNGKEYKCKVSNKGLPSSIEKTISKAKGQPREPQVYTLPPSREEMTKNQVSLTCLVKGFYPSDIAVEWESNGQPENNYKTTPPYLDSDGSFFLYSKLTVDKSRWQEGNVFSCSVMHEALHNHYTQESLSLSP
light 1: DVVMTQTPASVEAAVGGTVTIKCQASQSISSYLAWYQQKPGQPPKLLIYDASDLASGVPSRFKGSGSGTQFTLTISDLECADAATYYCQSYYYSSSSSYGFAFGGGTKVEIKRTVAAPSVFIFPPSDEQLKSGTASVVCLLNNFYPREAKVQWKVDNALQSGNSQESVTEQDSKDCTYSLSSTLTLSKADYEKHKVYACEVTHQGLSSPVTKSFNRGEC
heavy 2: B1 heavy 2
light 2: B1 light 2
B3: MHR0019/CD3 (bispecific antibody, human IgG1, kappa, N297A)
heavy 1: QSVEESGGRLVAPGTPLTLTCTVSGIDLSSDAMAWVRQAPGKGLEYIGIISSSGSTYYASWAKGRFTISKTSTTVDLKITSPTTEDTATYFCARGVDIYGHAYATPYGMDLWGPGTLVTVSSASTKGPSVFPLAPSSRSTSESTAALGCLVKDYFPEPVTVSWNSGALTSGVHTFPAVLQSSGLYSLSSVVTVPSSSLGTKTYTCNVDHKPSNTKVDKRVEPKSCDKTHTCPPCPAPELRRGPKVFLFPPKPKDTLMISRTPEVTCVVVDVSQEDPEVQFNWYVDGVEVHNAKTKPREEQFASTYRVVSVLTVLHQDWLNGKEYKCKVSNKGLPSSIEKTISKAKGQPREPQVYTLPPSREEMTKNQVSLTCLVKGFYPSDIAVEWESNGQPENNYKTTPPYLDSDGSFFLYSKLTVDKSRWQEGNVFSCSVMHEALHNHYTQESLSLSP
light 1: EVVMTQTPASVSEPVGGTVTIKCQASQSISSYLSWYQQKPGQPPKLLIYYASTLASGVPSRFKGSGSGTEFTLTISDLECDDAATYYCQSNYGSSSSSYEDTFGGGTKVEIKRTVAAPSVFIFPPSDEQLKSGTASVVCLLNNFYPREAKVQWKVDNALQSGNSQESVTEQDSKDCTYSLSSTLTLSKADYEKHKVYACEVTHQGLSSPVTKSFNRGEC
heavy 2: B1 heavy 2
light 2: B1 light 2
B4: MHR0016/CD3 (bispecific antibody, human IgG1, kappa, N297A)
heavy 1: QSVEESGGRLVTPGTPLTLTCTVSGFSLSSNAISWVRQAPGKGLEYIGIISSSGSTYYANWAKGRFTISKTSSTTVDLKMTSATTEDTATYFCARGVDIYGHAYATPYGMDLWGPGTLVTVSSASTKGPSVFPLAPSSRSTSESTAALGCLVKDYFPEPVTVSWNSGALTSGVHTFPAVLQSSGLYSLSSVVTVPSSSLGTKTYTCNVDHKPSNTKVDKRVEPKSCDKTHTCPPCPAPELRRGPKVFLFPPKPKDTLMISRTPEVTCVVVDVSQEDPEVQFNWYVDGVEVHNAKTKPREEQFASTYRVVSVLTVLHQDWLNGKEYKCKVSNKGLPSSIEKTISKAKGQPREPQVYTLPPSREEMTKNQVSLTCLVKGFYPSDIAVEWESNGQPENNYKTTPPYLDSDGSFFLYSKLTVDKSRWQEGNVFSCSVMHEALHNHYTQESLSLSP
light 1: B3 light 1 with A51S, D81A
heavy 2: B1 heavy 2
light 2: B1 light 2
B5: MHR0060/CD3 (bispecific antibody, human IgG1, kappa, N297A)
heavy 1: B3 heavy 1 with A12T, I26F, D27S, D31Y, A34G, S60N, A102P
light 1: B3 light 1 with S12E, E13V, P14A, S34A
heavy 2: B1 heavy 2
light 2: B1 light 2

Molecular target: recombinant human HER2 S310F ECD protein (human) (UniProt P04626)
Test: SPR, Biacore 8K, 37 C, antibody captured by anti-human Fc on CM4, antigen as analyte, 1:1 model

Binder | Kd [nM]
B1 | 36.2
B2 | 10.8
B3 | 13.9
B4 | 22.3
B5 | 40.4
